Test results as given in patent US20260365696A1, “INHIBITORS OF PTP1B / NCK1 INTERACTION AND METHODS OF MAKING AND USING SAME” (Radella Pharmaceuticals LLC, priority 2023, published 2026).

T1: NCK1 SH3-2 domain (human)
T1 chain: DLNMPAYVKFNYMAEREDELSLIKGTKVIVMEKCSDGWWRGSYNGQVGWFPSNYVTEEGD


Target: T1, NCK1 SH3-2 domain
Assay: ITC

Row | Binder | Kd
1 | Ac-PPRPPKRS-NH2 [MH152] | < 300 µM
2 | Ac-PPRPPKRL-NH2 [MH147] | < 300 µM
3 | Ac-PPRPPKRD-NH2 [MH141] | < 300 µM
4 | Ac-PPRPPKRC-NH2 [MH142] | < 300 µM
5 | Ac-PPRPPKRH-NH2 [MH146] | < 300 µM
6 | Ac-PPRPPKRN-NH2 [MH140] | < 300 µM
7 | Ac-PPRPPKRF-NH2 [MH150] | < 300 µM
8 | Ac-PPRPPKRY-NH2 [MH155] | < 300 µM
9 | Ac-PPRPPKRA-NH2 [MH138] | < 300 µM
10 | Ac-PPRPPKRR-NH2 [MH139] | < 300 µM
11 | Ac-PPRPPKRP-NH2 [MH151] | < 600 µM
12 | Ac-PPRPPKRG-NH2 [MH145] | < 300 µM
13 | Ac-PPRPPKRM-NH2 [MH149] | < 300 µM
14 | Ac-PPRPPKRK-NH2 [MH148] | < 300 µM
15 | Ac-PPRPPKRW-NH2 [MH154] | < 300 µM

Target: T1, NCK1 SH3-2 domain
Assay: ITC
Remark: another data set of the same source

Row | Binder | Kd
16 | Ac-PPEPPKR-NH2 [MH058] | < 300 µM
17 | Ac-PPQPPKR-NH2 [MH087] | < 300 µM
18 | Ac-PPHPPKR-NH2 [MH057] | < 300 µM
19 | Ac-PPGPPKR-NH2 [MH092] | > 600 µM
20 | Ac-PPIPPKR-NH2 [MH096] | < 300 µM
21 | Ac-PPVPPKR-NH2 [MH124] | < 300 µM
22 | Ac-PPMPPKR-NH2 [MH110] | < 300 µM
23 | Ac-PPPPPKR-NH2 [MH106] | < 300 µM
24 | Ac-PPWPPKR-NH2 [MH056] | < 600 µM
25 | Ac-PPCPPKR-NH2 [MH061] | < 300 µM
26 | Ac-PPYPPKR-NH2 [MH120] | < 300 µM
27 | Ac-PPLPPKR-NH2 [MH100] | < 300 µM
28 | Ac-PPTPPKR-NH2 [MH114] | < 300 µM
29 | Ac-PPNPPKR-NH2 [MH060] | < 300 µM
30 | Ac-PPSPPKR-NH2 [MH059] | < 300 µM
31 | Ac-PPKPPKR-NH2 [MH055] | < 300 µM
32 | Ac-PPDPPKR-NH2 [MH084] | < 300 µM
33 | Ac-PPFPPKR-NH2 [MH066] | < 300 µM

Target: T1, NCK1 SH3-2 domain
Assay: ITC
Remark: another data set of the same source

Row | Binder | Kd
34 | Ac-PPAEHIPPPPRPPKR-NH2 [MSJ014] | < 300 µM
35 | Ac-PPPEHIPPPPRPAKR-NH2 [MH005] | > 1000 µM
36 | Ac-PPPEHAPPPPRPPKR-NH2 [MSJ017] | < 300 µM
37 | Ac-APPEHIPPPPRPPKR-NH2 [MSJ012] | < 300 µM
38 | Ac-PPPEHIPPPPAPPKR-NH2 [MH003] | < 300 µM
39 | Ac-PAPEHIPPPPRPPKR-NH2 [MSJ013] | < 300 µM
40 | Ac-PPPEAIPPPPRPPKR-NH2 [MSJ016] | < 300 µM
41 | Ac-PPPEHIPPPPRPPKR-NH2 [MD17] | < 300 µM
42 | Ac-PPPAHIPPPPRPPKR-NH2 [MSJ015] | < 300 µM
43 | Ac-PPPEHIPPAPRPPKR-NH2 [MH001] | < 300 µM
44 | Ac-PPPEHIAPPPRPPKR-NH2 [MSJ018] | < 300 µM
45 | Ac-PPPEHIPAPPRPPKR-NH2 [MSJ019] | < 300 µM
46 | Ac-PPPEHIPPPPRPPKA-NH2 [MH007] | > 1000 µM
47 | Ac-PPPEHIPPPARPPKR-NH2 [MH002] | > 1000 µM
48 | Ac-PPPEHIPPPPRPPAR-NH2 [MH006] | < 300 µM

Target: T1, NCK1 SH3-2 domain
Assay: ITC
Remark: another data set of the same source

Row | Binder | Kd
49 | Ac-EPRPPKR-NH2 [MH071] | < 300 µM
50 | Ac-VPRPPKR-NH2 [MH123] | < 300 µM
51 | Ac-TPRPPKR-NH2 [MH113] | < 300 µM
52 | Ac-FPRPPKR-NH2 [MH073] | < 300 µM
53 | Ac-RPRPPKR-NH2 [MH068] | < 300 µM

Target: T1, NCK1 SH3-2 domain
Assay: ITC
Remark: another data set of the same source

Row | Binder | Kd
54 | Ac-PPRPPVR-NH2 [MH126] | < 300 µM
55 | Ac-PPRPPTR-NH2 [MH116] | < 300 µM
56 | Ac-PPRPPMR-NH2 [MH112] | < 300 µM
57 | Ac-PPRPPWR-NH2 [MH050] | < 300 µM
58 | Ac-PPRPPQR-NH2 [MH088] | < 300 µM
59 | Ac-PPRPPCR-NH2 [MH054] | < 300 µM
60 | Ac-PPRPPSR-NH2 [MH052] | < 300 µM
61 | Ac-PPRPPFR-NH2 [MH105] | < 600 µM
62 | Ac-PPRPPHR-NH2 [MH049] | < 300 µM
63 | Ac-PPRPPGR-NH2 [MH094] | > 600 µM
64 | Ac-PPRPPDR-NH2 [MH085] | < 600 µM
65 | Ac-PPRPPER-NH2 [MH051] | < 300 µM
66 | Ac-PPRPPLR-NH2 [MH102] | < 300 µM
67 | Ac-PPRPPYR-NH2 [MH122] | < 300 µM
68 | Ac-PPRPPRR-NH2 [MH048] | < 300 µM
69 | Ac-PPRPPPR-NH2 [MH107] | < 300 µM
70 | Ac-PPRPPIR-NH2 [MH098] | < 300 µM
71 | Ac-PPRPPNR-NH2 [MH053] | < 300 µM
